Measurements reported in patent publication US4851521A, “Esters of hyaluronic acid” (priority 1985, dated 1989).

How the values were obtained:
[1] = Absorption and bioavailability: plasma levels of hydrocortisone in rats; assay type: in vivo, male Sprague-Dawley rats; conditions: s.c.; for average plasmatic level of hydrocortisone: average of 4 values; for Ka: HYC 6.5 mg/kg
Experimental: Male Sprague-Dawley rats, with a body weight of 250-350 gr were used, obtained from Charles River-Calco (Como), fed ad libitum with water and compound feed in pellets, with the code name of 4RF 21, produced by "Italiana Mangimi", licensee of Charles River.
Hydrocortisone was administered in the form of sodium hemisuccinate salt at the dose of 1.34 mg/kg (corresponding to 1 mg/kg of hydrocortisone base) by general intravenous route and at the dose of 1.34 mg/kg and 2.68 mg/ kg (corresponding to 2 mg/ kg of hydrocortisone base) by subcutaneouos route (the i.v. route was considered in order to determine the pharmacokinetic parameters which serve as a comparison for the evaluation of absorption of any other administration route).
The three HYC derivatives were administered by subcutaneous route at the dose of 6.5 and 13 mg/kg (doses corresponding to about 1 and 2 mg/kg in hydrocortisone base). […] All the compounds were injected at a constant volume of 1 ml/kg.
After administration, 0.3 ml of blood was drawn from each animal by cardiac puncture in the presence of anticoagulant (sodium heparin).
Blood drawing times were as follows: *15 mins, 30 mins, 60 mins, 120 mins, 180 min, 300 mins, 360 mins, 420 mins, 480 mins (*limited to the intraveneous route).
The hydrocortisone was dosed by radioimmunoassay method (Cortisolo Kit, Biodata, cod. 10394) using iodate tracing. […] The linearity of the method comes between 1 and 1000 ng/ml. The observation limit is 1 ng/ml.
The dosage of the cortisolemia in the rat is not influenced either by the base levels or by the circadian rhythms of this hormone, as the metabolic pattern of the endogenous glucocorticoid hormones in the rat, leads to the production of corticosterone and not cortisol (see E. L. Green: Biology of the laboratory mouse.)
In Table 3 are reported the results of the average plasma levels of hydrocortisone, after i.v. and s.c. injection (1 and 2 mg/kg). […] In Table 4 are reported the pharmacokinetic parameters of cortisol calculated graphically from the plasmatic decline curves. In Table 3 are reported the average levels of cortisol after subcutaneous administration of the three HYC derivatives at doses of 6.5 and 13 mg/kg (corresponding to about 1 and 2 mg/kg in hydrocortisone base). In Table 4 are reported the pharmacokinetic parameters relative to cortisol calculated graphically with the method of residues from the plasma absorption curve of the three HYC products.

[2] = system: dextran-induced aseptic (exudative) phlogosis in rabbit eye; test: Anti-inflammatory activity: dextran-induced aseptic (exudative) phlogosis in rabbit eye; assay type: in vivo; conditions: for eyes without signs of phlogosis out of the total number of eyes treated: 3 drops every 6 hours, 4 treated eyes
Experimental: 9 hyaluronic esters of cortisone, hydrocortisone and fluorocortisone (9 fluorohydrocortisone) identified by the code names HYC1-HYC9 were tested. Table 1 describes these compounds and gives the percentages of the number of carboxylic groups of HY which are esterified with the above corticosteroids, and where applicable the percentage esterified with simple aliphatic alcohols and those salified with alkaline metals (Na):
Aseptic (exudative) phlogosis was induced in 48 rabbits by intraocular injection of dextran (1% in saline, 0.1 ml). The various products were administered by instillation in the right eye (RE) of the rabbits, while in the left eye (LE) only vehicle was instilled.
The treament (3 drops every 6 hours) was begun immediately after the injection of dextran and was continued for 16 days.
Both eyes of each rabbit were observed through a slit lamp. In particular the following were examined: the state of the conjunctiva and corneal epithelium, the anterior chamber (presence of Tyndall effect), state of the iris and of the posterior segment of the eye. With a Goldmann lens, the state of the back of the eye was examined. The presence of signs of inflammation (hyperemia, exudate, cloudiness of the liquids, etc.) was recorded.
Values are expressed as percentages (number of eyes without signs of phlogosis out of the total number of eyes treated). In brackets are the number of treated eyes.

horny layer (skin) = test: Skin hydration after topical application (corneometer); assay type: in vivo, human (healthy volunteers); conditions: 0.2% in ointment, single administration, average for 10 subjects
Experimental: In order to establish a comparison between hyaluronic acid and its derivatives of the present invention, some experiments were carried out to instrumentally evaluate, after topical application, the hydrating properties of the compounds in examination. All the compounds were […] concentration of 0.2% in an ointment the composition of which was as follows: […] Each volunteer was treated (single administration) with all the formulations in examination, which were applied (1 gr./ointment) to the inside surface of each forearm, distinguishing with a dermographic pencil the application zone (about 25 cm^2) of each product and standardizing the procedure as far as possible. To the right forearm were applied the compounds known as […]9, while to the left were applied HYAFF10, placebo and hyaluronic acid. […] Most particularly, the dielectric strength of the water was measured (in 0.8 seconds), after application of the sensor (condenser) to the skin surface. […] Registrations were carried out in constant humidity conditions.

[3] = 10 days from start of phlogosis
[4] = 12 days from start of phlogosis
[5] = 14 days from start of phlogosis
[6] = 16 days from start of phlogosis

Row | Substance | average plasmatic level of hydrocortisone ([1]; 6.5 mg/kg, 30 min) | average plasmatic level of hydrocortisone ([1]; 6.5 mg/kg, 60 min) | average plasmatic level of hydrocortisone ([1]; 6.5 mg/kg, 120 min) | average plasmatic level of hydrocortisone ([1]; 6.5 mg/kg, 180 min) | average plasmatic level of hydrocortisone ([1]; 6.5 mg/kg, 360 min) | average plasmatic level of hydrocortisone ([1]; 6.5 mg/kg, 420 min) | average plasmatic level of hydrocortisone ([1]; 6.5 mg/kg, 480 min) | average plasmatic level of hydrocortisone ([1]; 13 mg/kg, 30 min) | average plasmatic level of hydrocortisone ([1]; 13 mg/kg, 60 min) | average plasmatic level of hydrocortisone ([1]; 13 mg/kg, 120 min) | average plasmatic level of hydrocortisone ([1]; 13 mg/kg, 180 min) | average plasmatic level of hydrocortisone ([1]; 13 mg/kg, 300 min) | average plasmatic level of hydrocortisone ([1]; 13 mg/kg, 360 min) | average plasmatic level of hydrocortisone ([1]; 13 mg/kg, 420 min) | average plasmatic level of hydrocortisone ([1]; 13 mg/kg, 480 min) | Ka [1] | eyes without signs of phlogosis out of the total number of eyes treated ([2]; 2 days from start of phlogosis) | eyes without signs of phlogosis out of the total number of eyes treated ([2]; 4 days from start of phlogosis) | eyes without signs of phlogosis out of the total number of eyes treated ([2]; 6 days from start of phlogosis) | eyes without signs of phlogosis out of the total number of eyes treated ([2]; 8 days from start of phlogosis) | further results
1 | (mixed) ethanol and hydrocortisone ester (C21) of hyaluronic acid (HY) [HYC5] | 33.41 ng/mL | 49.52 ng/mL | 60.52 ng/mL | 61.17 ng/mL | 42.44 ng/mL | 30.43 ng/mL | 25.85 ng/mL | 26.55 ng/mL | 38.77 ng/mL | 41.56 ng/mL | 44.81 ng/mL | 32.51 ng/mL | 31.92 ng/mL | 26.17 ng/mL | 22.54 ng/mL | 0.65 h⁻¹ | 0.0% | 0.0% | 25.0% | 50.0% | eyes without signs of phlogosis out of the total number of eyes treated [2, 3]: 50.0%; eyes without signs of phlogosis out of the total number of eyes treated [2, 4]: 100.0%; eyes without signs of phlogosis out of the total number of eyes treated [2, 5]: 100.0%; eyes without signs of phlogosis out of the total number of eyes treated [2, 6]: 100.0%; antiinflammatory activity (in words) ([2]; compared with the corresponding cortisones): most efficient of these derivatives
2 | (partial and mixed) ethanol and hydrocortisone ester (LC21) of hyaluronic acid (HY) [HYC8] | 33.75 ng/mL | 45.23 ng/mL | 44.75 ng/mL | 41.80 ng/mL | 26.10 ng/mL | 20.50 ng/mL | 17.60 ng/mL | 34.62 ng/mL | 51.69 ng/mL | 108.01 ng/mL | 76.64 ng/mL | 54.66 ng/mL | 47.17 ng/mL | 42.60 ng/mL | 37.03 ng/mL | 0.94 h⁻¹ | 0.0% | 0.0% | 0.0% | 25.0% | average plasmatic level of hydrocortisone ([1]; 6.5 mg/kg, 300 min): 30.00 ng/mL; eyes without signs of phlogosis out of the total number of eyes treated [2, 3]: 50.0%; eyes without signs of phlogosis out of the total number of eyes treated [2, 4]: 100.0%; eyes without signs of phlogosis out of the total number of eyes treated [2, 5]: 100.0%; eyes without signs of phlogosis out of the total number of eyes treated [2, 6]: 100.0%
3 | (partial) butyl ester of hyaluronic acid (HY) [HYAFF10] |  |  |  |  |  |  |  |  |  |  |  |  |  |  |  |  |  |  |  |  | x Δ% degree of hydration of the corneal layer, 1st hr (horny layer (skin)): 68.8%; x Δ% degree of hydration of the corneal layer, 3rd hr (horny layer (skin)): 57.0%; x Δ% degree of hydration of the corneal layer, 6th hr (horny layer (skin)): 27.5%; x Δ% degree of hydration of the corneal layer, 24th hr (horny layer (skin)): 8.3%
4 | (partial) hydrocortisone ester (C21) of hyaluronic acid (HY) [HYC2] | 27.02 ng/mL | 35.67 ng/mL | 42.32 ng/mL | 37.35 ng/mL | 26.96 ng/mL | 24.24 ng/mL | 18.92 ng/mL | 32.32 ng/mL | 50.51 ng/mL | 62.42 ng/mL | 58.44 ng/mL | 51.68 ng/mL | 48.17 ng/mL | 44.67 ng/mL | 39.41 ng/mL | 0.86 h⁻¹ | 0.0% | 0.0% | 0.0% | 25.0% | average plasmatic level of hydrocortisone ([1]; 6.5 mg/kg, 300 min): 32.27 ng/mL; eyes without signs of phlogosis out of the total number of eyes treated [2, 3]: 50.0%; eyes without signs of phlogosis out of the total number of eyes treated [2, 4]: 100.0%; eyes without signs of phlogosis out of the total number of eyes treated [2, 5]: 100.0%; eyes without signs of phlogosis out of the total number of eyes treated [2, 6]: 100.0%
5 | HYALURONIC ACID [reference compound] |  |  |  |  |  |  |  |  |  |  |  |  |  |  |  |  |  |  |  |  | x Δ% degree of hydration of the corneal layer, 1st hr (horny layer (skin)): 54.7%; x Δ% degree of hydration of the corneal layer, 3rd hr (horny layer (skin)): 37.6%; x Δ% degree of hydration of the corneal layer, 6th hr (horny layer (skin)): 19.7%; x Δ% degree of hydration of the corneal layer, 24th hr (horny layer (skin)): 5.3%
